Laboratory results as given in patent US20140120109A1 (Regeneron, published 2014).
Numbering of substitutions follows the chain as printed. In names and notes the source's numbering stands.

B1: H4H1704N (antibody, human IgG4 S228P, V domains shown)
VH: EVQLVESGGGLVQPGGSLRLSCAVSGFTFSSYWMSWVRQAPGKGLEWVANIKEDGSEKNYVDSVKGRFTLSSDNAKNSLYLQMNSLRAEDTAVYYCAREDYDSYYKYGMDVWGQGTAVIVSS
VL: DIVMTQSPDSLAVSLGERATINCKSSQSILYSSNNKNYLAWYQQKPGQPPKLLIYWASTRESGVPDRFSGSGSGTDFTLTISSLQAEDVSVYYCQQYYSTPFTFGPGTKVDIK
notes: human IgG4(S108P) form of H2M1704N
B2: H4H1681N (antibody, human IgG4 S228P, V domains shown)
VH: EVQLLESGGGLVQPGKSLRLSCAVSGFTFSTYGMNWVRQAPGKGLEWVSSISGTGRTTYHADSVQGRFTVSRDNSKNILYLQMNSLRADDTAVYFCTKERGDYYYGVFDYWGQGTLVTVSS
VL: DIQMTQSPSTLSASVGDRVTITCRASQTISSWLAWYQQTPEKAPKLLIYAASNLQSGVPSRFSGSGSGTEFTLTISSLQPDDFATYYCQQYHRSWTFGQGTKVEIT
B3: H4H1805N (antibody, human IgG4 S228P, V domains shown)
VH: QVQLQQWGAGLLKPSETLSLTCAVYGGSFTGFYWSWIRQPPGKGLEWIGEINHRGNTNYNPSLKSRVTMSVDTSKNQFSLNMISVTAADTAMYFCASPFYDFWSGSDYWGQGTLVTVSS
VL: DIMLTQTPLTSPVTLGQPASISCKSSQSLVHSDGNTYLSWLQQRPGQPPRLLFYKISNRFSGVPDRFSGSGAGTDFTLKISRVEAEDVGVYYCMQATQFPLTFGGGTKVEIK
notes: human IgG4(S108P) form of H2M1805N
B4: H4H1742P (antibody, human IgG4 S228P, V domains shown)
VH: EVQLVESGGGLVQPGGSLRLSCAASGFTFSNYVMNWVRQAPGKGLEWVSVISGSGGSTHYADSVKGRFTISRDNSKDALYLQMNSLRAEDTAVYYCAKGPLEAYYYYNGMDVWGQGTTVTVSS
VL: DIQLTQSPSFLSASVGDRVTITCWASQAISSYLAWYQHKPGRAPKLLIYSTSTLQSGVPSRFSGSGSGTEFTLTISSLQPEDFATYYCQQLNSYPTFGQGTKLEIK
B5: H4H1750P (antibody, human IgG4 S228P, V domains shown)
VH: QVQLVESGGGVVQPGRSLRLSCVASGFTFSNYGMHWVRQAPGKGLEWVAVISYDGNNDLYSDSVKGRFTISRDNAKNALSLQMTSLRAEDTAVYYCARDSTMTPYYYHGIDVWGQGTTVTVSA
VL: DIQMTQSPSSLSASVGDRVTITCRASQDIRNDLGWYQQKPGKAPKRLIYAASSLQSGVPSRFSGSGSGTDFTLTISSLQPEDFATYYCLQHNSYPPTFGQGTKVEIK
B6: H4H1818N (antibody, human IgG4 S228P, V domains shown)
VH: RLQLVESGGGLVKPGGSLKLSCAASGFTISDYYMSWIRQAPGKGLEWVSYIGGSGSTIYYADSVKGRFTISRDNAKNSLYLQMNSLRAEDTAVYYCAREDADSYYYYGMDVWGQGTTVTVSS
VL: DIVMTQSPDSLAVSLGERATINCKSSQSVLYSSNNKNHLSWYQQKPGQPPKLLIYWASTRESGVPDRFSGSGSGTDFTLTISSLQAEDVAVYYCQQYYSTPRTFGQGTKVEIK
notes: human IgG4(S108P) form of H2M1818N
B7: H4H1725P (antibody, human IgG4 S228P, V domains shown)
VH: QVQLVQSGAEVKKPGASVKVSCKASGYTFTGYYMHWVRQAPGQGLEWMGWIKPKSGGTNYVQKFQGRVTMTRDTSINTAYMELNNLKSDDTAVYYCATGGSQDASDFWGQGTMVTVSS
VL: DIQMTQSPSSVSASVGGRVTITCRASQDISIWLAWYQQKPGKAPNLLIYAASSLQSGVPSRFSGSGSGTDFTLTISSLQPEDFATYYCQQADSFPLTFGGGTKVEIK
B8: H4H1804N (antibody, human IgG4 S228P, V domains shown)
VH: QVQLHQWGAGLLKPSETLSLTCAVSGVSFSDYHWAWIRQSPGKGLEWIGDINHRGRTNYNPSLKSRVTISLDTSGNPFSLKLTSVTAADTAVYYCARDFPNWVFDSWGQGILVTVSS
VL: EIVLSQSPGTLSLSPGERATLSCRASQSVSSSFLAWYQQYPGQAPRLLIYGASRRATGIPDRFRGSGSGTDFTLTISRLEPEDFAVYYCQQYGSSPLTFGGGTKVENK
notes: human IgG4(S108P) form of H2M1804N
B9: H4H1745P (antibody, human IgG4 S228P, V domains shown)
VH: EVQLVESGGGLVQPGGSLRLSCAASGFTFSSYAMTWVRQAPGKGLEWVSGVSGRGGSTYYADSVKGRFTISRDNSKNTLYLQMNSLRAEDTAVYYCAYWDISSFDYWGQGTLVTVSS
VL: DIQLTQSPSFLSASVGDRVTITCWASQGISTYLAWYQQKPGKTPKLLIYAASTLQSGVPSRFSGSGSGTDFTLTISSLQPEDFATYYCQQFNSYPLTFGGGTKVEIK
B10: H4H1817N (antibody, human IgG4 S228P, V domains shown)
VH: QVQLQQWGAGLLKPSETLSLTCAVSGGSFSDYFWTWIRQPPGKGLEWIGEISHSGRTNYNPSLKSRVTISVDTSMSQFSLKMTSVTAADSAVYYCARDYPNWVFDYWGQGTLVTVSS
VL: EIELTQSPGTLSLSPGEGATLSCRASQSVFNSYLAWYQQKPGQAPRLLIYGASRRATGIPDRFSGSGSGTDFTLTISRLEPGDFAVYFCQQYGNSPLTFGGGTKVEIK
notes: human IgG4(S108P) form of H2M1817N

Assays:
[1] = molecular target: T1, full length human TL1A expressed on HEK293 cells (human, UniProt O95150 1-251); assay: flow, HEK293/hTL1A, mAb 0.1 ug/ml + 3 ug/ml soluble hTL1A
T1 construct: also called HEK293/hTL1A; cell-surface hTL1A
T1 sequence: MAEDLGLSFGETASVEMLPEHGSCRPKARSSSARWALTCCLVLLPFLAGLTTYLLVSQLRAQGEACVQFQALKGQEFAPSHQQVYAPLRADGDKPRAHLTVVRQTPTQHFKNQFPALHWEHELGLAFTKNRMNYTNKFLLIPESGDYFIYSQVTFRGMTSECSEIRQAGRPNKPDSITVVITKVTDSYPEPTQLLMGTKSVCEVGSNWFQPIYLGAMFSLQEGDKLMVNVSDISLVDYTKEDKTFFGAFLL
Experimental: (§1) Human embryonic kidney 293 cells stably transfected to over-express cell-surface hTL1A were first stained in a flow cytometric experiment with eight anti-hTL1A antibodies at four concentrations (1, 0.1, 0.01, and 0.003 μg/ml). […] The lowest antibody concentration providing significant staining levels was then used in a competition binding experiment. A negative isotype control antibody (human IgG4) was used at 1 μg/ml to define the background signal. For the competition experiment, eight antibody samples, at the minimal concentrations identified above, were first treated with soluble hTL1A expressed from CHO cells at concentrations ranging from 0.03 μg/ml to 10 μg/ml. After pre-incubation for 30 min on ice, the antibody/hTL1A mixture was added to 293/HEK-hTL1A cells that had been isolated by centrifugation in a 96-well conical plate. After incubation for an additional 10 minutes on ice, the cells were washed. The secondary reagent, anti-h Fcγ-APC F(ab′)₂, was added to all wells at a 200-fold dilution to detect bound antibodies. Samples were incubated for 15 minutes on ice, away from light, and then washed. Cells were processed on an BD™ LSR II Flow Cytometer (BD Biosciences) to detect anti-hTL1A antibodies bound to the cell surface, and data were analyzed using FlowJo software (version 8.8.6; Tree Star Inc.). Maximum signal: Anti-hTL1A antibody binding in the absence of soluble hTL1A; Minimum signal: Signal recorded when […] of isotype control antibody was added in place of the anti-hTL1A antibody. NT: Not tested.

[2] = molecular target: T1, full length human TL1A expressed on …; assay: flow, HEK293/hTL1A, mAb 0.1 ug/ml, no soluble hTL1A (maximum signal)
Experimental: as §1

[3] = molecular target: T1, full length human TL1A expressed on …; assay: flow, HEK293/hTL1A, mAb 0.1 ug/ml + 0.3 ug/ml soluble hTL1A
Experimental: as §1

[4] = molecular target: T2, cynomolgus monkey TL1A, soluble, CHO-expressed, residues 72-251 of SEQ ID NO:248 with N-terminal His6-tag (cynomolgus monkey (Macaca fascicularis), UniProt O95150 72-251 (human entry)); assay: SPR 37C, mAb captured; kd set at 1e-6 1/s
T2 construct: also called MfTL1A; MfTL1A (CHO)
T2 chain: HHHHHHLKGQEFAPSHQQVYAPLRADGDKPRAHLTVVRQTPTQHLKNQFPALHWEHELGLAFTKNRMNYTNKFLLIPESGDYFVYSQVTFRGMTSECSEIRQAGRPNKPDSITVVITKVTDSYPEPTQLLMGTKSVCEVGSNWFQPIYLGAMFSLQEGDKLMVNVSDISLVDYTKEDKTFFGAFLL
Experimental: (§2) Measurements were conducted on a T100 BIACORE™ instrument. […] Kinetic association (kₐ) and dissociation (kd) rate constants were determined by fitting the data to a 1:1 binding model using BIAevaluation 4.1 curve fitting software (BIAcore Life Sciences). Molar concentrations of TL1A/Fhm used in the data fitting assumed a monomeric state for TL1A in solution. Binding dissociation equilibrium constants (KD) and dissociative half-lives (t_{1/2}) were calculated from the kinetic rate constants as: KD (M)=kd/kₐ; and t_{1/2} (min)=[In2/(60*kd)].

[5] = molecular target: T3, human TL1A, soluble, CHO-expressed, residues 72-251 of SEQ ID NO:244 with N-terminal His6-tag (human, UniProt O95150 72-251); assay: SPR 37C, mAb captured; kd set at 1e-6 1/s
T3 construct: also called hTL1A; hTL1A (CHO)
T3 sequence: T2 chain with L45F, V84I
Experimental: as §2

[6] = molecular target: T1, full length human TL1A expressed on …; assay: flow, HEK293/hTL1A, mAb 0.1 ug/ml + 0.1 ug/ml soluble hTL1A
Experimental: as §1

[7] = molecular target: T1, full length human TL1A expressed on …; assay: flow, HEK293/hTL1A, mAb 0.1 ug/ml + 1 ug/ml soluble hTL1A
Experimental: as §1

[8] = molecular target: T1, full length human TL1A expressed on …; assay: flow, HEK293/hTL1A, mAb 1 ug/ml + 0.03 ug/ml soluble hTL1A
Experimental: as §1

[9] = molecular target: T1, full length human TL1A expressed on …; assay: flow, HEK293/hTL1A, mAb 1 ug/ml, no soluble hTL1A (maximum signal)
Experimental: as §1

[10] = molecular target: T1, full length human TL1A expressed on …; assay: flow, HEK293/hTL1A, mAb 1 ug/ml + 3 ug/ml soluble hTL1A
Experimental: as §1

[11] = molecular target: T1, full length human TL1A expressed on …; assay: flow, HEK293/hTL1A, mAb 1 ug/ml + 0.3 ug/ml soluble hTL1A
Experimental: as §1

[12] = molecular target: T1, full length human TL1A expressed on …; assay: flow, HEK293/hTL1A, mAb 1 ug/ml + 1 ug/ml soluble hTL1A
Experimental: as §1

Row | Binder | MFI [1] | MFI [2] | MFI [3] | Kd [4] [pM] | t1/2 [4] [h] | Kd [5] [pM] | t1/2 [5] [h] | MFI [6] | MFI [7] | MFI [8] | MFI [9] | MFI [10] | MFI [11] | MFI [12]
1 | B1 | 22.6 | 116 | 31.5 | ≤ 0.93 | ≥ 192 | ≤ 1 | ≥ 192 | 132 | 26 | – | – | – | – | –
2 | B2 | – | – | – | – | – | – | – | – | – | 318 | 320 | 28.5 | 236 | 80.9
3 | B3 | 23.6 | 158 | 36.8 | – | – | – | – | 60.2 | 25.1 | – | – | – | – | –
4 | B4 | – | – | – | ≤ 4.45 | ≥ 192 | ≤ 4.37 | ≥ 192 | – | – | 126 | 126 | 19.9 | 44.7 | 32.7
5 | B5 | – | – | – | – | – | ≤ 13.8 | ≥ 192 | – | – | – | – | – | – | –
6 | B6 | – | – | – | ≤ 0.804 | ≥ 192 | ≤ 0.925 | ≥ 192 | – | – | – | – | – | – | –
7 | B7 | 34.9 | 211 | 40.7 | – | – | – | – | 84.5 | 29.2 | – | – | – | – | –
8 | B8 | 28.9 | 127 | 33.5 | – | – | – | – | 51.1 | 33.7 | – | – | – | – | –
9 | B9 | – | – | – | – | – | – | – | – | – | 80 | 87.2 | 19.5 | 115 | 26.9
10 | B10 | – | – | – | – | – | – | – | – | – | 85.3 | 110 | 25.2 | 23.6 | 29.1
